Results from PMC7397094.
Like-named read-outs stand apart in the source and are kept apart here.

Key:
[1] = target: human recombinant RetGC1 (retinal membrane guanylyl cyclase 1) (human) (UniProt Q02846)
[2] = target: human recombinant RetGC1 (retinal membrane guanylyl cyclase 1) (human) (UniProt Q02846); remark: listed apart in the source
[3] = target: human recombinant RetGC1 (retinal membrane guanylyl cyclase 1) (human) (UniProt Q02846); remark: listed apart in the source
[4] = target: human recombinant RetGC1 (retinal membrane guanylyl cyclase 1) (human) (UniProt Q02846); remark: listed apart in the source

Sequence of UniProt Q02846 (Q02846 52-1103): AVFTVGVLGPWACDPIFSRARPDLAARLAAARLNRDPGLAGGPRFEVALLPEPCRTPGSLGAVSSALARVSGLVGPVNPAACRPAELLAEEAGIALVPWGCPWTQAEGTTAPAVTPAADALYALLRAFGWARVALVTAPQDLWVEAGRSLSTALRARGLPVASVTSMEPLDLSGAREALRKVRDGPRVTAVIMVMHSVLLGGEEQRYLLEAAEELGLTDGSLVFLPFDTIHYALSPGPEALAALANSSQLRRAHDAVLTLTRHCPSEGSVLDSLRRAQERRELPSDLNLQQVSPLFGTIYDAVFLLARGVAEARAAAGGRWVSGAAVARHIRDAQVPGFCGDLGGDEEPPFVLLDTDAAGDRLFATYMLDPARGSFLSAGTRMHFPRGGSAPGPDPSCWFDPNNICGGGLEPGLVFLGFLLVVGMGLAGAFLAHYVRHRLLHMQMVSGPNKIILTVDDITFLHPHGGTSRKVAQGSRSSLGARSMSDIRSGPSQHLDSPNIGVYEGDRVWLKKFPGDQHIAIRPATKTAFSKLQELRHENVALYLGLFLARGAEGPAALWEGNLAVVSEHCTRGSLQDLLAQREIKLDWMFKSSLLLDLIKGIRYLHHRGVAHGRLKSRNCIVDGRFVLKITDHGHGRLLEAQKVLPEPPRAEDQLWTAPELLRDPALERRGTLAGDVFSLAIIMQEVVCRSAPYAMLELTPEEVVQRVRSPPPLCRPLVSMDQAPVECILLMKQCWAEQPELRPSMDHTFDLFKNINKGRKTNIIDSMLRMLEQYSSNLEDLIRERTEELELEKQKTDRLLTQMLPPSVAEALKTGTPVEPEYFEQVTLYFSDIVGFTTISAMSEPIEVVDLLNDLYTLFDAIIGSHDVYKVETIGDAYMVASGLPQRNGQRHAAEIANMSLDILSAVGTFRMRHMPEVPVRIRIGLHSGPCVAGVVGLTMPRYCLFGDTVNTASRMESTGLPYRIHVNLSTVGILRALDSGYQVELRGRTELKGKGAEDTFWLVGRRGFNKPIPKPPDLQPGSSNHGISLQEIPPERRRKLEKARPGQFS

IC50 of inhibition of GCAP1-activated RetGC1 activity [1] | RetGC1 activity left with 100 nM RD3, % of that without RD3 (1.5 uM GCAP1) [2] | IC50 of inhibition of GCAP1-activated RetGC1 activity [3] | IC50 of inhibition of GCAP1-activated RetGC1 activity (empirical estimate) [4] | Substance
0.0034 µM | 11.7% |  |  | RD3 P146ter (from UniProt Q7Z3Z2 1-145) (domain or fragment)
 | 17.9% | 0.0167 µM |  | RD3 A105Y (from UniProt Q7Z3Z2 1-195) (natural protein)
 | 17.5% | 0.0135 µM |  | RD3 E106K (from UniProt Q7Z3Z2 1-195) (natural protein)
 | 8.5% | 0.0036 µM |  | RD3 A105R (from UniProt Q7Z3Z2 1-195) (natural protein)
 | 13.3% | 0.0098 µM |  | RD3 Y92A (from UniProt Q7Z3Z2 1-195) (natural protein)
 | 82.8% | 0.882 µM |  | RD3 L63R (from UniProt Q7Z3Z2 1-195) (natural protein)
 | 17.7% | 0.0118 µM |  | RD3 S61Y (from UniProt Q7Z3Z2 1-195) (natural protein)
 | 65.3% | 0.63 µM |  | RD3 Y60A (from UniProt Q7Z3Z2 1-195) (natural protein)
 | 11% | 0.0036 µM |  | WT RD3 (retinal degeneration-3), bacterially expressed (from UniProt Q7Z3Z2 1-195) (natural protein)
 | 49.7% | 0.253 µM |  | RD3 W62A (from UniProt Q7Z3Z2 1-195) (natural protein)
 | 15.5% | 0.0156 µM |  | RD3 S74R (from UniProt Q7Z3Z2 1-195) (natural protein)
 | 37.9% | 0.135 µM |  | RD3 R101E (from UniProt Q7Z3Z2 1-195) (natural protein)
 | 13.2% | 0.0106 µM |  | RD3 H89G (from UniProt Q7Z3Z2 1-195) (natural protein)
 | 22.5% | 0.0207 µM |  | RD3 G94Y (from UniProt Q7Z3Z2 1-195) (natural protein)
0.0045 µM | 13.4% |  |  | RD3 W6L/W9L (from UniProt Q7Z3Z2 1-195) (natural protein)
 | 48% | 0.261 µM |  | RD3 R101A (from UniProt Q7Z3Z2 1-195) (natural protein)
 | 24.1% | 0.0266 µM |  | RD3 D59R (from UniProt Q7Z3Z2 1-195) (natural protein)
 |  |  | > 10 µM | RD3 W62A/L63R (from UniProt Q7Z3Z2 1-195) (natural protein)
